From publication PMC7385938 (Cell Stress & Chaperones, 2020) come the findings set out here.

For orientation: stoichiometry N means a count of units in the complex or per binding partner.

This data set deals with the molecule itself. The data set can be described thus: non-reducing LDS-PAGE of proteoliposomes.

B1: HSPA5-N (N-terminal end domain of HSPA5) (domain or fragment)
chain: not shown
Regarding B1, the “stoichiometry N” value was determined as 2.

B2: HSPA5-FL (full-length human HSPA5 without the leading signal peptide for ER translocation) (natural protein)
chain: not shown
On to B2, for which the binding result was “binds”.

B3: HSPA1-N (N-terminal end domain of HSPA1) (domain or fragment)
chain: not shown
B3: the binding result is “binds”.
